Drawing on article PMC11578894, this text covers Kd and stoichiometry N for 1 substance.

In this test the target is His6–Gp54^Bas11 (phage Bas11). Description: ITC; CapRel^SJ46 in the syringe at 200 µM titrated into Gp54^Bas11 in the cell at 10 µM (Gp54^Bas11(G24D) was used at 260 µM); 30 °C; 50 mM HEPES pH 7.5, 500 mM KCl, 500 mM NaCl, 2 mM MgCl2, 1 mM TCEP. In general terms: In ITC the heat of successive injections is recorded.

A word on the Kd: it is the constant that tells how readily two partners part at equilibrium. High values mean a looser complex, low ones a tighter complex. The stoichiometry N is a count of units in the complex or per binding partner. With His6–MBP–CapRel^SJ46 (natural protein), the Kd was 0.8 µM and the stoichiometry N is 1.
